Reference: US20160017037A1 (GlaxoSmithKline, published 2016)

T1: Fc-tagged recombinant soluble LAG-3 (IMP321) (human, UniProt P18627 23-434)
T1 construct: also called LAG3-Ig molecule IMP321; recombinant sLAG-3; not shown: Fc / Ig part
T1 sequence (looked up): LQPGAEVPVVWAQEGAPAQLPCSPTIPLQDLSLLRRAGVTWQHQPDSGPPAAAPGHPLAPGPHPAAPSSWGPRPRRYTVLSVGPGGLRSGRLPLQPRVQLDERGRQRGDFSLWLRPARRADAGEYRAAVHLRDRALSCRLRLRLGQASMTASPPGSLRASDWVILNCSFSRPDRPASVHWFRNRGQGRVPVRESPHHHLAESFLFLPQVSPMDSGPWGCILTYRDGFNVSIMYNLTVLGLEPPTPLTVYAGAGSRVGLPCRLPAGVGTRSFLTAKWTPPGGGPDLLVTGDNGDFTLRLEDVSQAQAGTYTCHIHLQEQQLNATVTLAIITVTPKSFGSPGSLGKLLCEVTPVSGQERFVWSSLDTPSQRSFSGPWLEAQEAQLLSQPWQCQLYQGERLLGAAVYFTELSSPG


Biological target: T1, Fc-tagged recombinant soluble LAG-3 …
Test: SPR Biacore 3000, off-rate comparison with IMP731, IMP321 analyte at 64 nM
Description: The binding kinetics of the purified antibodies for a sLAG-3 molecule were assessed by SPR using a Biacore™ 3000. A goat anti-human kappa antibody (Southern Biotech, Catalogue No. 2060-01) was immobilised on a CM5 chip by primary amine coupling. Humanised anti-LAG3 antibodies were captured on this surface and the LAG3-Ig molecule IMP321 (Chrystelle Brignone, Caroline Grygar, Manon Marcu, Knut Schakel, Frederic Triebel, The Journal of Immunology, 2007, 179: 4202-4211) used as the analyte at 64 nM with a buffer injection (i.e. 0 nM) used to double reference the binding curves. Regeneration was with 10 mM Glycine, pH1.5. The run was carried out on the Biacore™ 3000, using HBS-EP as running buffer and at 25° C. Sensorgrams were normalised for binding at maximal association and off-rates compared against IMP731 by visual inspection of the sensorgram profiles.

Row | Rank order of off-rates | Binder
1 | 7 | J13L7 (antibody, human IgG1, kappa, V domains shown, Humanised anti-LAG-3 variant, HEK 293 6E expressed) VH: QVQLVQSGAEVKKPGSSVKVSCKASGGTFSAYGVNWVRQAPGQGLEWMGMIWDDGSTDYDSALKSRVTITADKSTSTAYMELSSLRSEDTAVYYCAREGDVAFDYWGQGTLVTVSS VL: DIQMTQSPSSLSASVGDRVTITCKSSQSLLNPSNQKNYLAWYQQKPGKAPKLLVYFASTRDSGVPSRFSGSGSGTDFTLTISSLQPEDFATYYCLQHFGTPPTFGQGTKLEIKR
2 | 8 | H7L7 (antibody, human IgG1, kappa, V domains shown, Humanised anti-LAG-3 variant, HEK 293 6E expressed) VH: QVQLQESGPGLVKPSETLSLTCTVSGGSISAYGVNWIRQPPGKGLEWIGMIWDDGSTDYDSALKSRVTISVDTSKNQFSLKLSSVTAADTAVYYCAREGDVAFDYWGQGTLVTVSS VL: DIQMTQSPSSLSASVGDRVTITCKSSQSLLNPSNQKNYLAWYQQKPGKAPKLLVYFASTRDSGVPSRFSGSGSGTDFTLTISSLQPEDFATYYCLQHFGTPPTFGQGTKLEIKR
3 | 5 | J11L7 (antibody, human IgG1, kappa, V domains shown, Humanised anti-LAG-3 variant, HEK 293 6E expressed) VH: QVQLVQSGAEVKKPGSSVKVSCKASGFSLTAYGVNWVRQAPGQGLEWMGMIWDDGSTDYDSALKSRVTITADKSTSTAYMELSSLRSEDTAVYYCAREGDVAFDYWGQGTLVTVSS VL: DIQMTQSPSSLSASVGDRVTITCKSSQSLLNPSNQKNYLAWYQQKPGKAPKLLVYFASTRDSGVPSRFSGSGSGTDFTLTISSLQPEDFATYYCLQHFGTPPTFGQGTKLEIKR

The next lines start with the binder.

Row | Binder | Rank order of off-rates
4 | H1L7 (antibody, human IgG1, kappa, V domains shown, Humanised anti-LAG-3 variant, HEK 293 6E expressed) VH: QVQLQESGPGLVKPSETLSLTCTVSGFSLTAYGVNWIRQPPGKGLEWIGMIWDDGSTDYNSALKSRVTISVDTSKNQFSLKLSSVTAADTAVYYCAREGDVAFDYWGQGTLVTVSS VL: DIQMTQSPSSLSASVGDRVTITCKSSQSLLNPSNQKNYLAWYQQKPGKAPKLLVYFASTRDSGVPSRFSGSGSGTDFTLTISSLQPEDFATYYCLQHFGTPPTFGQGTKLEIKR | 2
5 | J7L7 (antibody, human IgG1, kappa, V domains shown, Humanised anti-LAG-3 variant, HEK 293 6E expressed) VH: QVQLVQSGAEVKKPGSSVKVSCKASGFSLTAYGVNWVRQAPGQGLEWMGMIWDDGSTDYNSALKSRVTITADKSTSTAYMELSSLRSEDTAVYYCAREGDVAFDYWGQGTLVTVSS VL: DIQMTQSPSSLSASVGDRVTITCKSSQSLLNPSNQKNYLAWYQQKPGKAPKLLVYFASTRDSGVPSRFSGSGSGTDFTLTISSLQPEDFATYYCLQHFGTPPTFGQGTKLEIKR | 3
6 | H0L7 (antibody, human IgG1, kappa, V domains shown, Humanised anti-LAG-3 variant, HEK 293 6E expressed) VH: QVQLQESGPGLVKPSETLSLTCTVSGGSISAYGVNWIRQPPGKGLEWIGMIWDDGSTDYNSALKSRVTISVDTSKNQFSLKLSSVTAADTAVYYCAREGDVAFDYWGQGTLVTVSS VL: DIQMTQSPSSLSASVGDRVTITCKSSQSLLNPSNQKNYLAWYQQKPGKAPKLLVYFASTRDSGVPSRFSGSGSGTDFTLTISSLQPEDFATYYCLQHFGTPPTFGQGTKLEIKR | 10
7 | H4L7 (antibody, human IgG1, kappa, V domains shown, Humanised anti-LAG-3 variant, HEK 293 6E expressed) VH: QVQLQESGPGLVKPSETLSLTCTVSGFSLTAYGVNWIRQPPGKGLEWLGMIWDDGSTDYNSALKSRLTISKDNSKNQVSLKLSSVTAADTAVYYCAREGDVAFDYWGQGTLVTVSS VL: DIQMTQSPSSLSASVGDRVTITCKSSQSLLNPSNQKNYLAWYQQKPGKAPKLLVYFASTRDSGVPSRFSGSGSGTDFTLTISSLQPEDFATYYCLQHFGTPPTFGQGTKLEIKR | 4
8 | J0L7 (antibody, human IgG1, kappa, V domains shown, Humanised anti-LAG-3 variant, HEK 293 6E expressed) VH: QVQLVQSGAEVKKPGSSVKVSCKASGGTFSAYGVNWVRQAPGQGLEWMGMIWDDGSTDYNSALKSRVTITADKSTSTAYMELSSLRSEDTAVYYCAREGDVAFDYWGQGTLVTVSS VL: DIQMTQSPSSLSASVGDRVTITCKSSQSLLNPSNQKNYLAWYQQKPGKAPKLLVYFASTRDSGVPSRFSGSGSGTDFTLTISSLQPEDFATYYCLQHFGTPPTFGQGTKLEIKR | 9
9 | H2L7 (antibody, human IgG1, kappa, V domains shown, Humanised anti-LAG-3 variant, HEK 293 6E expressed) VH: QVQLQESGPGLVKPSETLSLTCTVSGFSLTAYGVNWIRQPPGKGLEWIGMIWDDGSTDYNSALKSRVTISKDNSKNQVSLKLSSVTAADTAVYYCAREGDVAFDYWGQGTLVTVSS VL: DIQMTQSPSSLSASVGDRVTITCKSSQSLLNPSNQKNYLAWYQQKPGKAPKLLVYFASTRDSGVPSRFSGSGSGTDFTLTISSLQPEDFATYYCLQHFGTPPTFGQGTKLEIKR | 6
